Three molecules from publication PMC13282566, “Regulation of Citron kinase by CDK1 and Aurora B regulates midbody formation and stability” (Journal of Cell Science, 2026) can be followed below.

One assay deals with KIF14 901-1648 (UniProt Q15058). The assay is described as follows: GST pull-down of MBP-tagged fragment, western blot. Conditions: reference: fragment incubated without CDK1/cyclin B; sites S440.
For another assay, the target named is T1, GST::KIF14(901-1648) (UniProt Q15058 901-1648).
T1 construct: Cloned into pDEST15; source: E. coli, purified (glutathione sepharose 4B), kept on beads; not shown: GST, N-terminal, kept
T1 sequence (looked up): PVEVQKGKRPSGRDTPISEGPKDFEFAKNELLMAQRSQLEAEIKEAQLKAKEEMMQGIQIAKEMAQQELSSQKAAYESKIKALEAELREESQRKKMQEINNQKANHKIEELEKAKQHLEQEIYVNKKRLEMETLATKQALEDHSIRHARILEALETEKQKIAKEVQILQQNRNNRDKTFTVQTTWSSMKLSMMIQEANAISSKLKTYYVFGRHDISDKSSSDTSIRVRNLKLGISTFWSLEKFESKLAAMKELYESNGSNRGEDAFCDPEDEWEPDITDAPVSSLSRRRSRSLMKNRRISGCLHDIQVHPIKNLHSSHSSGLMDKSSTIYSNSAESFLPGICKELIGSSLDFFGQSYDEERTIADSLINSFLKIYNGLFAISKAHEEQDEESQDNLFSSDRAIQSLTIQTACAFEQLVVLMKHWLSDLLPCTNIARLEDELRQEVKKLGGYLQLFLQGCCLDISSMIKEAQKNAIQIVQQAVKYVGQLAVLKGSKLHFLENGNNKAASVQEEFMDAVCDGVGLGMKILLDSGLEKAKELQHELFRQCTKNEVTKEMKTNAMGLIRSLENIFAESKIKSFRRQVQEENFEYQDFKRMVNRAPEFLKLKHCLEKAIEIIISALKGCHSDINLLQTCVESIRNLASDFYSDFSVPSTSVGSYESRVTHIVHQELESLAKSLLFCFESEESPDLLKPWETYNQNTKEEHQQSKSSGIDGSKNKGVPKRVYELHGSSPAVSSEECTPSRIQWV
The assay is described as follows: pull-down; GST-tagged KIF14 or MKLP1 fragment on glutathione sepharose beads, purified MBP::CIT-K fragment in solution (with or without prior incubation with CDK1/cyclin B or AURKB); NET-N+ buffer (50 mM Tris-HCl pH 7.4, 150 mM NaCl, 5 mM EDTA, 0.2% NP-40), 60 min at 4°C; washes with 250 mM NaCl; western blot. Conditions: both partners purified.

Consider “Citron kinase (CIT-K) 420-585 (from UniProt O14578-4) fragment incubated with CDK1/cyclin B”, for which, in the assay with KIF14 901-1648, the “binding against the reference” value is on record as “same”.

B1: MBP::CIT-K(420-585) (domain or fragment, human, UniProt O14578-4 420-585, looked up)
chain: SYSKALGILGRSESVVSGLDSPAKTSSMEKKLLIKSKELQDSQDKCHKMEQEMTRLHRRVSEVEAVLSQKEVELKASETQRSLLEQDLATYITECSSLKRSLEQARMEVSQEDDKALQLLHDIREQSRKLQEIKEQEYQAQVEEMRLMMNQLEEDLVSARRRSDLY
notes: contains S440; numbering of UniProt O14578-4; Cloned into pKM596; also called MBP::CC1 fragment containing S440; source: E. coli, purified (amylose resin, eluted with maltose)
Consider B1, for which the binding result with GST::KIF14(901-1648) is reported as “binds”.

B2: MBP::CIT-K(420-585) phosphorylated by CDK1/cyclin B (pS440) (domain or fragment, human, UniProt O14578-4 420-585, looked up)
chain: B1 chain
modifications: phosphoserine at 440 (in vitro by CDK1/cyclin B, detected with the CIT-K pS440 antibody)
notes: numbering of UniProt O14578-4; source: E. coli, purified (amylose resin), then incubated with recombinant CDK1/cyclin B
In the case of B2, in the assay with GST::KIF14(901-1648), the binding result was “binds”.
